Test system: MS2 coat protein
Experiment: apparent KD of MS2 coat protein; designed switch direction (-1 OFF switch, 1 ON switch): -1; higher = weaker reporter binding
Summary of the method: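 The apparent KD reported per design is the median over clusters of curve fits to normalised cluster fluorescence. The RNA switches were transcribed on Illumina chips by stalled E. coli RNA polymerase. SNAP-549-labelled MS2 coat protein was titrated from 0.7 or 1.5 nM, doubling up to 3 µM, in Tris-HCl pH 7.5 buffer containing KCl, MgCl2, BSA, DTT, tRNA and Tween-20, with no input, 200 uM small-molecule ligand, or an oligonucleotide input.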

[1] = input ligand: microRNA oligo, concentration not stated
[2] = Eterna round: R95, input ligand: microRNA oligo, concentration not stated
[3] = Eterna round: R95, input ligand: FMN 200 uM
[4] = Eterna round: R95, input ligand: none

Sequence	apparent KD of MS2 coat protein (input ligand: FMN 200 uM) [nM]	apparent KD of MS2 coat protein (input ligand: none) [nM]	apparent KD of MS2 coat protein [1] [nM]	apparent KD of MS2 coat protein [2] [nM]	apparent KD of MS2 coat protein [3] [nM]	apparent KD of MS2 coat protein [4] [nM]
CGGAAAUCCAAGGAUAUGCUAGACGAAAGUCUAGCAGAAGGUGGAACAUGAGGAUCACCCAUGUGUCCAAUCCG [Mat - Exclusion 6 - Eli Mod - D25] (Eterna round: R97, puzzle: Exclusion 6)	19.1	14.5				
UUUUGGCAUGUAGGAUAUGGGUCCGAUUAGGAUUUAGAAGGACAUGAGGAUCACCCAUGUGCACUUAAUUGGUCUUUUUUUUUU [EXclNG1-LROPPY16] (Eterna round: R96, puzzle: Exclusion NG 1)	37.7	36.5	23.5			
AGUCCUGAAGUUAGGAUAUGAAGUAUCACUGCACUUCAGAAGGGACUUGAGGAUCACCCAAGUAGCCGUGAGGG [salish99_bmod_ex4_r4_002] (Eterna round: R97, puzzle: Brourd's mod of Exclusion 4)	128	70.6				
GGUCCUGAUGAUUUCCUAGACAUGAGGAUCACCCAUGUUUAUUUAUUUUGUUUUUAGCUUUUUGGUCGUCAAUAAUA [Mod-Hoo-honey-4] (Eterna round: R97, puzzle: Sensor, turn-off variant 1)	100	99.6				
AGCAUGGUAGGAUAUACGGAACAUUAGGGUUUGUUGUGUGGACAUGAGGAUCACCCAUGUAGAAGGGCCGUGCA [Mat - Exclusion 2 - Mod of JL - D81] (puzzle: Exclusion 2)				33.7		
UAGAUGGGAGGAUAUGCGUAGAUGCGGAUUCGUGUGGUGCUACAUGAGGAUCACCCAUGUAGAAGGCCCGUCUU [JL-ex2-2.26 Mayanne mod] (puzzle: Exclusion 2)				13.5		
GCGGUAUUCCCUGGAGUACCAUACAUGAGGAUCACCCAUGUAUAGGAUAUUGCAGGAGACAGCUGCGAGAAGGGUACAGGGUGU [Dierceza] (Eterna round: R96, puzzle: Exclusion NG 3)	26.6	15.9	14.4			
GGCACACAUGAGGAUCACCCAUGUGAGGAUAUGAGGCGAUCGUCGAUAGACGAUAGCCUUAGAAGGCACAUGCC [Mat - Exclusion 1 - Eli Mod - D11] (Eterna round: R97, puzzle: Exclusion 1)	45.2	21.2				
CUAGAGCGAGGAUAUACAUGAGGAUCACCCAUGUGGCAGCCGGGUAGGAGUGACGUCGGUAGAAGGCGCACCCG [Anrate] (puzzle: Exclusion 3)				33.2	27.5	37.9
UCUUAUUGCAAGGAUAUGCAAAUUAUUAUUAAUGCAGAAGGUGCUACAUGAGGAUCACCCAUGUUUCCGGGUUU [JR_E6_Sub042] (puzzle: Exclusion 6)				43.3		
CUAUCUAGAGGAUAUACGAGAUCGAAAGAUCGGCGAUCCCUACAUGAGGAUCACCCAUGUAGAAGGCUAGAUAG [Mod 16 - Jieux - Exclusion 2] (Eterna round: R97, puzzle: Exclusion 2)	99.5	18.6				
ACACUGCGAGGAUAUACAUGAGGAUCACCCAUGUUUCGGUAGUCAAGGUUAAUUUAAGGUAGAAGGCGCGUAUU [JR_Ex3_Sub010] (Eterna round: R97, puzzle: Exclusion 3)	63.8	33.2				
GGGCUGUCAGGAUAUACAUGAGGAUCACCCAUGUCGAGCUGUGAUAGGGCAAGAGUAGGUAGAAGGGACGAGAG [JR_Exclu3_Sub042] (puzzle: Exclusion 3)				30.5		
CUUGUGUGAGGAUAUGCGUAGGCAGUAAGUAAGUAGCCGGAGCAGAAGGCACAUGAGGAUCACCCAUGUGUUAC [EX4 B.1] (Eterna round: R97, puzzle: Exclusion 4)	121	72.6				
CCUAGGUUAGGAUAUCUCGAUGUGGCAAAGGGUCCAUAUCGGGAGAAGGAACAUGAGGAUCACCCAUGUGGAGC [Eternabot (Original) Solution 42] (Eterna round: R97, puzzle: Exclusion 4)	159	57				
AAAGCAAAGACAGGAUAUCGACCCAGUGAUUUUCGUGCCGGAAACAUGAGGAUCACCCAUGUGUACGAGAAGGGUCAAAACAAC [Uslebeteat] (Eterna round: R96, puzzle: Exclusion NG 2)	61.9	22.3	17.1			
AUAUAAACAUAGGAUAUCGAAUUUAUCAUUUAACGAGAAGGAUGAACAUGAGGAUCACCCAUGUGGUAUCAUGG [Mat - Exclusion 6 - JL Mod - D5] (puzzle: Exclusion 6)				333	553	340

Sequence	apparent KD of MS2 coat protein (input ligand: FMN 200 uM) [nM]	apparent KD of MS2 coat protein (input ligand: none) [nM]	apparent KD of MS2 coat protein [1] [nM]	apparent KD of MS2 coat protein [2] [nM]	apparent KD of MS2 coat protein [3] [nM]	apparent KD of MS2 coat protein [4] [nM]
GCGCUGUCAGGAUAUCGCGCGCGCGCGGAAAUGUGUGUGUGUGAGAAGGGACAUGAGGAUCACCCAUGUGGUGU [-28.5, -27.5 kcal, A 20%, 6-6bis] (Eterna round: R97, puzzle: Exclusion 4)	213	583				
CGUGACUGAGGAUAUCUAUAAUAUCACAUGAGGAUCACCCAUGUCCAGCGAAAGCUGGAGGGAGAAGGCAGUCACG [Fiskers Ex 5 - 29] (puzzle: Exclusion 5)				127	53	75.3
CUCCGGCGUGUAGGAUAUGGAUCCGAUUAGGAUCCAGAAGGACAUGAGGAUCACCCAUGUACAUGUCGGCGGUCGUCACCGGGC [salish99_ExNG1_r04_209] (Eterna round: R96, puzzle: Exclusion NG 1)	34	20.1	14.4			
GAUCUACAUGAGGAUCACCCAUGUAAGGAUAUUGAGUACUCGAAUGGAGAGCAAGGAUCAAGAAGGUGCAAUAU [Eternabot (L1) Solution 79] (Eterna round: R97, puzzle: Exclusion 1)	18.8	23.1				
AAAAAGUGAGGAUAUACAUGAGGAUCACCCAUGUAAUAAAAAAAAAGGGUGGAAGAAAGUAGAAGGCACCAAAA [Ex 3 May 48] (Eterna round: R96, puzzle: Exclusion 3)	323	65.3	64.5			
GGUCAGAUGGUAGGAUAUCCAUAUUGAGUGACCCUUUCAUAACAUGAGGAUCACCCAUGUCGGUGGGAGAAGGGCCGUACGGCG [salish99_ExNG02_R04_015] (Eterna round: R96, puzzle: Exclusion NG 2)	176	114	71.2			
AUGUGCACGCUGCGAUCCUACAUGAGGAUCACCCAUGUGGUCUGGUGGCGUGGGUCACCGGACUUGGCUCGUCUUGA [salish99_S_TOV1_R5_067] (Eterna round: R97, puzzle: Sensor, turn-off variant 1)	117	128				
AUAAAUCAUGUAGGAUAUGCGUGGCGAAGCUAUGCAGAAGGACAUGAGGAUCACCCAUGUCUUUCCGUCUGCGUACAGACGGAA [Mat - Exclusion NG 1 - Mod of JL - D41] (Eterna round: R96, puzzle: Exclusion NG 1)	289	24.5	23.6			
AGAGUGCUGCGAGGAUAUACAUGAGGAUCACCCAUGUAAAAGUGUGAGGCUUUGCCUCACACGAAGUAGAAGGCGCAGUACUCA [Mat - Exclusion NG 2 - Mod of JL - D33] (Eterna round: R96, puzzle: Exclusion NG 2)	13	24.3	11.3			
GAAAGCUUUGAGCUCGAUCACAUGAGGAUCACCCAUGUGGGAGCCAGGCGACGGCAUUCUGCGAGGGCGACUUUUGG [Eternabot (L2) Solution 42] (Eterna round: R97, puzzle: Sensor, turn-off variant 1)	17.8	15.4				
AAAUAGCGAGGAUAUACUGGAAUAGAAAAUAUUCGCAUGGCACAUGAGGAUCACCCAUGUAGAAGGCGCAGUAA (Eterna round: R97, puzzle: Exclusion 2)	85.5	25.5				
AGAUGCUUAAGUCGACAUGAGGAUCACCCAUGUACAGUUAACGAGGAUAUCCGAGAUAAAUAAUAGGAGAAGGCGUGAUCAUGA [Ex NG3 #2] (Eterna round: R96, puzzle: Exclusion NG 3)	56.6	277	363			
UUAUAUAAUGUGAGGAUAUGCUGGUCCAUAGAUCAGCAGAAGGCACAUGAGGAUCACCCAUGUAGUAAAUUUUA [Mat - Exclusion 4 - JL Mod - D12] (puzzle: Brourd's mod of Exclusion 4)				14.5	24.2	14.8
AUUGUUUAUGUAGGAUAUGCCUGGCGUGCCUUUGCAGAAGGACAUGAGGAUCACCCAUGUAACAUGAGGCUCACCCAUGUCGCG [salish99_ExNG1_r04_113] (Eterna round: R96, puzzle: Exclusion NG 1)	297	333	184			
GGAUCGUAUGUCAGGAUAUGCCACUGGAUACAGUGGUAGAAGGGACAUGAGGAUCACCCAUGUCCUACCGAUCC [Fiskers BMX 4 - 50] (puzzle: Brourd's mod of Exclusion 4)				12.4		
UUUGUUUGCACAGGAUAUUGUUAUUUUAUUUUUCAAGAAGGGUGUACAUGAGGAUCACCCAUGUUAAGGUUUAAUCUUUCACUU [JR_ExcNG1_Sub010] (Eterna round: R96, puzzle: Exclusion NG 1)	346	619	479			
